Results reported in the supplement of paper PMC9170038.

System: K4 kissing-loop RNA reporter
Assay: apparent KD of K4 kissing-loop reporter; higher = weaker reporter binding
Conditions: Eterna round: R107
Description: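 RNA-MaP round R107: designed RNA switches with theophylline, tryptophan, arginine or FMN aptamers are transcribed on-chip within common flanks. They are titrated with a labelled K4 kissing-loop RNA reporter in RNA-MaP buffer (100 mM Tris pH 7.5, 80 mM KCl, 4 mM MgCl2), without ligand or with the indicated ligand. Median apparent KD per design.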

[1] = input ligand: theophylline 20 uM
[2] = input ligand: tryptophan 2.4 mM
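Note: bound reporter read as fluorescence of individual clusters on recovered sequencing chips by microscopy, with normalized cluster intensities fitted with a binding model.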

Row | Sequence | apparent KD of K4 kissing-loop reporter (input ligand: FMN 200 uM) [nM] | apparent KD of K4 kissing-loop reporter (input ligand: arginine 13.2 mM) [nM] | apparent KD of K4 kissing-loop reporter (input ligand: none) [nM] | apparent KD of K4 kissing-loop reporter [1] [nM] | apparent KD of K4 kissing-loop reporter [2] [nM]
1 | AAAACUAUCAGAAGGAGCGUGGAAUAUUCAUCUAUAUUUAAUACGAGUGAUGUUCGUAAUUCACAGGUAGGUCGCUGAUCAAUAA [JR_ExcArginiB_Sub007] | 214 | 251 | 233 | 273 | 171
2 | AAAAGAAAGUCGGCCGCCACUCAACGCAGUGAUGUUGCAAGACAGAAGAGCAGUGAUGUUGCCCAGAGGACCGGGACACAAGGCC [Same State Typtophan B GF 3] | 352 | 384 | 444 | 401 | 309
3 | AAAAGCCAGCAAGGAUAUACGCGCGAAGCAUCCAUGGUGCCAGUUCCAGUGAUGUUGGACCACAUCGUAGAAGGUGCGCGGCUCA [theeternabot_sameState_KL_FMN_B_33] | 440 | 223 | 266 | 224 | 274
4 | AAAAUAAAUAGCAGUCAUGGAGUGAUGUUCCGAGGACCGGUACGGCCGCCACUCGACCAUCAUAAGAUGGAAUGGCGAGACUGCA [#SwitchBubble 22 #K4Early] | 252 | 288 | 249 | 362 | 520
5 | AAAAUAAAUCAGUGAUGUUGGUAUCCGGAUACCAGCGAUAAUCAUCGCCCUUGGCAGCCGCGGACGUACAAAAUAAGUACGUCCU [MatMod 15 - Jieux - Same State - Theophylline A] | 282 | 89.2 | 218 | 240 | 131
6 | AAAAUAACCCAGUGAUGUUGGUAUGCAGAUACCAGCGACGAAAGUCGCCCUUGGCAGCUGUGGACGUACAAAAUAAGUACGUCCU | 1230 | 834 | 1420 | 1220 | 1520
7 | AAAAUAAUCCAGUGAUGUUGGUAUCCAGAUACCAGCCAGGAAACUGGCCCUUGGCAGCUGGCGACGUACAAAAUAAGUACGUCGU [#OpenEnded 11 #StaticStem #K4Early] | 405 | 184 | 470 | 664 | 374
8 | AAAAUAAUCCAGUGAUGUUGGUGUCCAGAUACCAGCGACGAAAGUCGCCCUUGGCAGCUGUGGACGUACAAAAUAAGUACGUCCU | 476 | 331 | 559 | 251 | 431
9 | AAAAUAGAUCAGUGAUGUUGGUGUCUGGAUACCAGCGAUAAUAGUCGCCCUUGGCAGCCAUGGACGUACAAAAUAAGUACGUCCU [MatMod 20 - Jieux - Same State - Theophylline A] | 487 | 239 | 369 | 285 | 347
10 | AAACAUCACUGGGAGUGAUGUUCUCAGUGACGAGGACCGGUACGGCCGCCACUCGCGAGAGAUAUAAAUAAGUAAUGACAUCAUU [Excl Tryptophan A V1] | 359 | 334 | 360 | 357 | 423
